This is an account of results in paper PMC4631838, “Molecular architecture of the yeast Mediator complex” (eLife, 2015).

Experiment [1] concerns the target T1, Med15 (Gal11), Mediator Tail module subunit (S. cerevisiae, UniProt P19659 1-1081).
T1 construct: Med15 (Gal11), S. cerevisiae, endogenous; source: endogenous, S. cerevisiae CB010 double-tagged strain; within the purified native holoenzyme
T1 sequence (looked up): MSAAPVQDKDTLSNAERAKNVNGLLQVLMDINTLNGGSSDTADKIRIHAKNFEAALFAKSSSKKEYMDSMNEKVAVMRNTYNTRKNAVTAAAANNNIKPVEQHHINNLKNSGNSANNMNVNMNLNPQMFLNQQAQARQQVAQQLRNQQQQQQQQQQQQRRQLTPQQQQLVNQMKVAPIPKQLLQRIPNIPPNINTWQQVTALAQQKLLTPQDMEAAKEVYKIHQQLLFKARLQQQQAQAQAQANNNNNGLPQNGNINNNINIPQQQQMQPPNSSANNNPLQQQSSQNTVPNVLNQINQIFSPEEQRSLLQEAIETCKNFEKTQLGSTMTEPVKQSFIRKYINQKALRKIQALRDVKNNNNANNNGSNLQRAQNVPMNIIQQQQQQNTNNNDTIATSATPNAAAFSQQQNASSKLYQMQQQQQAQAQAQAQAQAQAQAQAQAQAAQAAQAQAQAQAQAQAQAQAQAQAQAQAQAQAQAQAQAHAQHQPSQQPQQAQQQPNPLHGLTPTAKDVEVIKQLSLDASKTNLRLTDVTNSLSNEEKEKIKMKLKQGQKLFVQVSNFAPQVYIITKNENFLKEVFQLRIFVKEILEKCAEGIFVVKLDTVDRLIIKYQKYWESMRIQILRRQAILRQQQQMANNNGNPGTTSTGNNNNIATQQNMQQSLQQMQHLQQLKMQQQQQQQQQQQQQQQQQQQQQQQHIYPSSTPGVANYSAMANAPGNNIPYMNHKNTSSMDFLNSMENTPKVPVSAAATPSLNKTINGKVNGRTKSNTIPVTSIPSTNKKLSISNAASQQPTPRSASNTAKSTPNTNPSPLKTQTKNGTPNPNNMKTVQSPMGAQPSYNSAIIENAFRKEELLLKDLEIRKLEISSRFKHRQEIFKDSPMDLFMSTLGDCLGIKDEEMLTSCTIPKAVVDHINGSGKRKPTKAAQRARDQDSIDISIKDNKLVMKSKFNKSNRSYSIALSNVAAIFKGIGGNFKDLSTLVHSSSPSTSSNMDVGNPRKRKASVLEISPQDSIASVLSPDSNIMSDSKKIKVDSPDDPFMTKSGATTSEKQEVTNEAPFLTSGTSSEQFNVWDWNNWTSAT
Briefly: cross-linking; BS3 (unlabeled, or 50:50 with 2H12-labeled BS3) on the purified native holoenzyme; 150 mM NaPO4, 150 mM KOAc, pH 7.5, 5% glycerol, 2 mM DTT; procedure A 2.7 mM reagent 120 min on ice; trypsin digest, LC-MS/MS, Protein Prospector. The note with it: both partners purified.

Experiment [2] addresses T2, Med5 (Nut1), Mediator Tail module subunit (S. cerevisiae, UniProt P53114 1-1132).
T2 construct: Med5 (Nut1), S. cerevisiae, endogenous; source: endogenous, S. cerevisiae CB010 double-tagged strain; within the purified native holoenzyme
T2 sequence (looked up): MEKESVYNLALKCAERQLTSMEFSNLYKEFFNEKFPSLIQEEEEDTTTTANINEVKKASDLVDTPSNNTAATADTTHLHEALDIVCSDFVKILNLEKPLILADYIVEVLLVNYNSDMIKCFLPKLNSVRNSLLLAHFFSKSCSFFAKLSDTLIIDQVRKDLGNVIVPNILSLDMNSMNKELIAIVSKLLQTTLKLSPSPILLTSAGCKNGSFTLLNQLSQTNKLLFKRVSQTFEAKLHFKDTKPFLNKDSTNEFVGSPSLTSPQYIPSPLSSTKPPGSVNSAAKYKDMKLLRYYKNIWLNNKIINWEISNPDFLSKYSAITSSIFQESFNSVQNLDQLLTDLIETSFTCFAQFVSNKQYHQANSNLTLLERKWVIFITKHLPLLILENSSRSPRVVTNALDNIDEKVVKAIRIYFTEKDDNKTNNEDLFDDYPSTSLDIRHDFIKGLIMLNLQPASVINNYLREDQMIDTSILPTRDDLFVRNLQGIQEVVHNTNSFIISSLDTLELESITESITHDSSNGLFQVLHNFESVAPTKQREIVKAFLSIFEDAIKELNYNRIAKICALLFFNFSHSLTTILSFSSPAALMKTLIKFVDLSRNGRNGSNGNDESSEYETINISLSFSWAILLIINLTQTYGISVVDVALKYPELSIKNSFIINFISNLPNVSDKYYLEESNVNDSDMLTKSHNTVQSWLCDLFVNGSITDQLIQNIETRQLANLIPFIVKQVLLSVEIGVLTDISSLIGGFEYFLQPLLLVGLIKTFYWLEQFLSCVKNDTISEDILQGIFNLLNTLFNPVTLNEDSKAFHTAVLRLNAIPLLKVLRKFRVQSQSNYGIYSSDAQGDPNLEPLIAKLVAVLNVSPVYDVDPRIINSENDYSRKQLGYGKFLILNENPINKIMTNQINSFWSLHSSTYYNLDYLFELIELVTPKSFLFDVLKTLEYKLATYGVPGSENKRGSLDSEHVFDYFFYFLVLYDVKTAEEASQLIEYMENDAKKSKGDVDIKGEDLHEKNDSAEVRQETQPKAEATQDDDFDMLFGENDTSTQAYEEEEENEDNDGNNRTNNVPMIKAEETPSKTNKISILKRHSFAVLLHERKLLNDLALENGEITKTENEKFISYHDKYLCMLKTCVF
The description is as above. Conditions: both partners purified.

B1: Med16 (Sin4), Mediator Tail module subunit (natural protein, S. cerevisiae, UniProt P32259 1-974, looked up)
chain: MMLGEHLMSWSKTGIIAYSDSQSSNANICLTFLESINGINWRFHTPQKYVLHPQLHEVQYQESSSTLSTHSTTTSVNGSTTAGVGSTPNFGGNSNKSPPQFFYNISSIHWNNWFSLPGDMLAVCDELGNMTMLITGQRPDRATTYEKLTMVFQDNVYKIYNHVMPLKPVDKLKPMNIERKQTRKEYNTSILEFRWLTSSKSVIVSQFCAFDSSSNTYRSRAQQVPPYGVYHPPFIKYACLAIRKNGQIDFWYQFSNSKDHKKITLQLLDTSNQRFKDLQWLEFARITPMNDDQCMLITTYSKLSKNISFYKLHVNWNLNATKPNVLNDPSLKIQFILSTTLDPTDDEGHVLKLENLHVVSKSSIEKDPSPEILVLYNVCDTSKSLVKRYRLAPTQLSAEYLVILKPDLNIDRNNSTNQIFQSRRYNLRRHSDIVLDKKVTLITSEMFDAFVSFYFEDGTIESYNQNDWKLETERLISQSQLGKFKNIIASPLSAGFNYGKLPLPPSVEWMKVSPSMCGVIVKQYNKKWPQFYAAVQKNYADPEKDSINATALAFGYVKSLHKQISAEDLTIAAKTHILRISFLDRKRAKEFITTLLKSLYSFFNISPDAPKEIMDKIITSRPLQKIMLLQLELGSCFSQENIEEMARVILYLKNVLFAFNGVARNFHFAIEQISNNSNQQQNPKLFQTIFSKQDLIHSLIPVAKWFVKFITYLTQEILILINDPTNKEYTLVHGIFGAKMSRTLILSILNEIKKVTQIVAKFPETSYPILNESSTFLKLVLSESPVDFEKFETFLVDVNNKFIALCEQQPSQEREFSLLVKAEIPPEYAKVGDFLLQYANNAVISHANAAAVYFADTSGLKISNSEFFNPEIFHLLQPLEEGLIIDTDKLPIKNRTSKSFSKLLYDDVTCDKLSVSEISDGKLKRCSRCGSVTRAGNIISSDKTIVPTSIQTKRWPTMYTRLCICSGMLFEMDG
notes: Med16 (Sin4), S. cerevisiae, endogenous; source: endogenous, S. cerevisiae CB010 double-tagged strain; within the purified native holoenzyme
As to B1, the binding result in experiment [1] and in experiment [2] was “binds” in each case.
